The supplement of paper PMC5998384

Tests used:
HeLa Kyoto [1] = experiment: solubility in G1/S (NP-40 vs SDS abundance) (log2 ratio); higher = more soluble; conditions: cell cycle stage: G1/S
HeLa Kyoto [2] = experiment: melting temperature (median over replicates), in situ; higher = more thermally stable
HeLa Kyoto [3] = experiment: solubility change mitosis vs G1/S (difference of NP-40 vs SDS log2 ratios) (log2 ratio difference); higher = more soluble in mitosis
HeLa Kyoto [4] = experiment: thermal stability score vs G1/S (z-score of summed log2 fold changes over temperatures); higher = more thermally stable than in G1/S
[5] = cell cycle stage: early G1 (4.5 h after nocodazole release)
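Throughout, for melting temperature (median over replicates), in situ: HeLa Kyoto cells synchronized by double thymidine or nocodazole block, proteins quantified by TMT10plex mass spectrometry, three independent biological replicates.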
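Throughout, for solubility change mitosis vs G1/S (difference of NP-40 vs SDS log2 ratios): synchronized HeLa Kyoto cells (double thymidine block for G1/S, nocodazole release for mitosis), protein amounts in NP-40 versus SDS lysates quantified by mass spectrometry, three biological replicates.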
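Throughout, for solubility in G1/S (NP-40 vs SDS abundance): HeLa Kyoto cells arrested at G1/S by double thymidine block, proteins quantified by TMT10plex mass spectrometry in mild NP-40 versus SDS extracts, three biological replicates.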
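Throughout, for thermal stability score vs G1/S (z-score of summed log2 fold changes over temperatures): synchronized HeLa Kyoto cells, proteins quantified by TMT10plex mass spectrometry, three biological replicates, mitosis taken 0.5 h after nocodazole release, G1/S directly after double thymidine block.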

Sequence	solubility in G1/S (log2) (HeLa Kyoto [1])	melting temperature (HeLa Kyoto [2]; cell cycle stage: G1/S) [°C]	melting temperature (HeLa Kyoto [2]; cell cycle stage: mitosis) [°C]	solubility change mitosis (log2) (HeLa Kyoto [3])	thermal stability score (HeLa Kyoto [4]; [5])	thermal stability score (HeLa Kyoto [4]; cell cycle stage: mitosis)
MASTSRLDALPRVTCPNHPDAILVEDYRAGDMICPECGLVVGDRVIDVGSEWRTFSNDKATKDPSRVGDSQNPLLSDGDLSTMIGKGTGAASFDEFGNSKYQNRRTMSSSDRAMMNAFKEITTMADRINLPRNIVDRTNNLFKQVYEQKSLKGRANDAIASACLYIACRQEGVPRTFKEICAVSRISKKEIGRCFKLILKALETSVDLITTGDFMSRFCSNLCLPKQVQMAATHIARKAVELDLVPGRSPISVAAAAIYMASQASAEKRTQKEIGDIAGVADVTIRQSYRLIYPRAPDLFPTDFKFDTPVDKLPQL [GTF2B]	0.251	49.7	49.4	-0.111	2.28	4
MAVAPRLFGGLCFRFRDQNPEVAVEGRLPISHSCVGCRRERTAMATVAANPAAAAAAVAAAAAVTEDREPQHEELPGLDSQWRQIENGESGRERPLRAGESWFLVEKHWYKQWEAYVQGGDQDSSTFPGCINNATLFQDEINWRLKEGLVEGEDYVLLPAAAWHYLVSWYGLEHGQPPIERKVIELPNIQKVEVYPVELLLVRHNDLGKSHTVQFSHTDSIGLVLRTARERFLVEPQEDTRLWAKNSEGSLDRLYDTHITVLDAALETGQLIIMETRKKDGTWPSAQLHVMNNNMSEEDEDFKGQPGICGLTNLGNTCFMNSALQCLSNVPQLTEYFLNNCYLEELNFRNPLGMKGEIAEAYADLVKQAWSGHHRSIVPHVFKNKVGHFASQFLGYQQHDSQELLSFLLDGLHEDLNRVKKKEYVELCDAAGRPDQEVAQEAWQNHKRRNDSVIVDTFHGLFKSTLVCPDCGNVSVTFDPFCYLSVPLPISHKRVLEVFFIPMDPRRKPEQHRLVVPKKGKISDLCVALSKHTGISPERMMVADVFSHRFYKLYQLEEPLSSILDRDDIFVYEVSGRIEAIEGSREDIVVPVYLRERTPARDYNNSYYGLMLFGHPLLVSVPRDRFTWEGLYNVLMYRLSRYVTKPNSDDEDDGDEKEDDEEDKDDVPGPSTGGSLRDPEPEQAGPSSGVTNRCPFLLDNCLGTSQWPPRRRRKQLFTLQTVNSNGTSDRTTSPEEVHAQPYIAIDWEPEMKKRYYDEVEAEGYVKHDCVGYVMKKAPVRLQECIELFTTVETLEKENPWYCPSCKQHQLATKKLDLWMLPEILIIHLKRFSYTKFSREKLDTLVEFPIRDLDFSEFVIQPQNESNPELYKYDLIAVSNHYGGMRDGHYTTFACNKDSGQWHYFDDNSVSPVNENQIESKAAYVLFYQRQDVARRLLSPAGSSGAPASPACSSPPSSEFMDVN [USP11]	-0.0353	47.3	48.1	-0.0102	2.48	4.39
MAAVSLRLGDLVWGKLGRYPPWPGKIVNPPKDLKKPRGKKCFFVKFFGTEDHAWIKVEQLKPYHAHKEEMIKINKGKRFQQAVDAVEEFLRRAKGKDQTSSHNSSDDKNRRNSSEERSRPNSGDEKRKLSLSEGKVKKNMGEGKKRVSSGSSERGSKSPLKRAQEQSPRKRGRPPKDEKDLTIPESSTVKGMMAGPMAAFKWQPTASEPVKDADPHFHHFLLSQTEKPAVCYQAITKKLKICEEETGSTSIQAADSTAVNGSITPTDKKIGFLGLGLMGSGIVSNLLKMGHTVTVWNRTAEKCDLFIQEGARLGRTPAEVVSTCDITFACVSDPKAAKDLVLGPSGVLQGIRPGKCYVDMSTVDADTVTELAQVIVSRGGRFLEAPVSGNQQLSNDGMLVILAAGDRGLYEDCSSCFQAMGKTSFFLGEVGNAAKMMLIVNMVQGSFMATIAEGLTLAQVTGQSQQTLLDILNQGQLASIFLDQKCQNILQGNFKPDFYLKYIQKDLRLAIALGDAVNHPTPMAAAANEVYKRAKALDQSDNDMSAVYRAYIH [GLYR1]	-1.74	53.3	52.4	1.01	1.22	-1.43
MAKKTYDLLFKLLLIGDSGVGKTCVLFRFSDDAFNTTFISTIGIDFKIKTVELQGKKIKLQIWDTAGQERFHTITTSYYRGAMGIMLVYDITNGKSFENISKWLRNIDEHANEDVERMLLGNKCDMDDKRVVPKGKGEQIAREHGIRFFETSAKANINIEKAFLTLAEDILRKTPVKEPNSENVDISSGGGVTGWKSKCC [RAB10]	-0.153	57.5	56.5	-0.146	-0.265	-1.23
MAASPGPAGVGGAGAVYGSGSSGFALDSGLEIKTRSVEQTLLPLVSQITTLINHKDNTKKSDKTLQAIQRVGQAVNLAVGRFVKVGEAIANENWDLKEEINIACIEAKQAGETIAALTDITNLNHLESDGQITIFTDKTGVIKAARLLLSSVTKVLLLADRVVIKQIITSRNKVLATMERLEKVNSFQEFVQIFSQFGNEMVEFAHLSGDRQNDLKDEKKKAKMAAARAVLEKCTMMLLTASKTCLRHPNCESAHKNKEGVFDRMKVALDKVIEIVTDCKPNGETDISSISIFTGIKEFKMNIEALRENLYFQSKENLSVTLEVILERMEDFTDSAYTSHEHRERILELSTQARMELQQLISVWIQAQSKKTKSIAEELELSILKISHSLNELKKELHSTATQLAADLLKYHADHVVLKALKLTGVEGNLEALAEYACKLSEQKEQLVETCRLLRHISGTEPLEITCIHAEETFQVTGQQIISAAETLTLHPSSKIAKENLDVFCEAWESQISDMSTLLREINDVFEGRRGEKYGYLSLPKPMKNNANLKSLKPDKPDSEEQAKIAKLGLKLGLLTSDADCEIEKWEDQENEIVQYGRNMSSMAYSLYLFTRGEGPLKTSQDLIHQLEVFAAEGLKLTSSVQAFSKQLKDDDKLMLLLEINKLIPLCHQLQTVTKTSLQNKVFLKVDKCITKTRSMMALLVQLLSLCYKLLKKLQMENNGWVSVTNKDTMDSKT [CTNNAL1]	0.208	47.7	48.9	-0.111	0.258	1.63
MEPPYSLTAHYDEFQEVKYVSRCGAGGARGASLPPGFPLGAARSATGARSGLPRWNRREVCLLSGLVFAAGLCAILAAMLALKYLGPVAAGGGACPEGCPERKAFARAARFLAANLDASIDPCQDFYSFACGGWLRRHAIPDDKLTYGTIAAIGEQNEERLRRLLARPGGGPGGAAQRKVRAFFRSCLDMREIERLGPRPMLEVIEDCGGWDLGGAEERPGVAARWDLNRLLYKAQGVYSAAALFSLTVSLDDRNSSRYVIRIDQDGLTLPERTLYLAQDEDSEKILAAYRVFMERVLSLLGADAVEQKAQEILQVEQQLANITVSEHDDLRRDVSSMYNKVTLGQLQKITPHLRWKWLLDQIFQEDFSEEEEVVLLATDYMQQVSQLIRSTPHRVLHNYLVWRVVVVLSEHLSPPFREALHELAQEMEGSDKPQELARVCLGQANRHFGMALGALFVHEHFSAASKAKVQQLVEDIKYILGQRLEELDWMDAETRAAARAKLQYMMVMVGYPDFLLKPDAVDKEYEFEVHEKTYFKNILNSIRFSIQLSVKKIRQEVDKSTWLLPPQALNAYYLPNKNQMVFPAGILQPTLYDPDFPQSLNYGGIGTIIGHELTHGYDDWGGQYDRSGNLLHWWTEASYSRFLRKAECIVRLYDNFTVYNQRVNGKHTLGENIADMGGLKLAYHAYQKWVREHGPEHPLPRLKYTHDQLFFIAFAQNWCIKRRSQSIYLQVLTDKHAPEHYRVLGSVSQFEEFGRAFHCPKDSPMNPAHKCSVW [ECEL1]	-0.0684	52.9	52.1	-0.124	0.162	2.03
